IntAct's records for PubMed 24473200

B1: Nucleotide exchange factor SIL1 (Homo sapiens), Q9H173 (parent)
chain: MAPQSLPSSRMAPLGMLLGLLMAACFTFCLSHQNLKEFALTNPEKSSTKETERKETKAEEELDAEVLEVFHPTHEWQALQPGQAVPAGSHVRLNLQTGEREAKLQYEDKFRNNLKGKRLDINTNTYTSQDLKSALAKFKEGAEMESSKEDKARQAEVKRLFRPIEELKKDFDELNVVIETDMQIMVRLINKFNSSSSSLEEKIAALFDLEYYVHQMDNAQDLLSFGGLQVVINGLNSTEPLVKEYAAFVLGAAFSSNPKVQVEAIEGGALQKLLVILATEQPLTAKKKVLFALCSLLRHFPYAQRQFLKLGGLQVLRTLVQEKGTEVLAVRVVTLLYDLVTEKMFAEEEAELTQEMSPEKLQQYRQVHLLPGLWEQGWCEITAHLLALPEHDAREKVLQTLGVLLTTCRDRYRQDPQLGRTLASLQAEYQVLASLELQDGEDEGYFQELLGSVNSLLKELR

Variants of: B1
Details: with bip_human HSPA5, P11021
Chain of bip_human HSPA5, P11021 (P11021 whole entry): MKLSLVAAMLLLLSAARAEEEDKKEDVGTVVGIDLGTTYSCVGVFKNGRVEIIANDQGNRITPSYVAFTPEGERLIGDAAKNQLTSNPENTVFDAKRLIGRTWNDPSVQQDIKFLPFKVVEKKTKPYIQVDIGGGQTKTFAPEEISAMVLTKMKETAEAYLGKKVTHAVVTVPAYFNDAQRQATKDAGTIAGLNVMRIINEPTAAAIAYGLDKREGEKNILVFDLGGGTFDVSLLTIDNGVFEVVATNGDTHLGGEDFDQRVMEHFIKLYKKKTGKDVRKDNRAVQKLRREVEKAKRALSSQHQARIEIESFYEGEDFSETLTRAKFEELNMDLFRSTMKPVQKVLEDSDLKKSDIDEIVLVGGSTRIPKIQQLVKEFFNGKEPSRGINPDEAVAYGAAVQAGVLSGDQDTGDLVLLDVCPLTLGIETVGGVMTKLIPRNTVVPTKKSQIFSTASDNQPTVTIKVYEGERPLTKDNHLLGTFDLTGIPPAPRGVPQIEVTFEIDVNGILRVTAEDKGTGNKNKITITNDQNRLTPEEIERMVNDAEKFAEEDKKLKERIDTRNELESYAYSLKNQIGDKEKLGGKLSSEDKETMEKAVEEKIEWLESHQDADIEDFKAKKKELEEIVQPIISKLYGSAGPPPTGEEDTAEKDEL

| Variant | effect of a mutation on the interaction |
| --- | --- |
| L457P | decreasing interaction strength |
